Measurements taken from publication PMC6497955, “Development and structural characterization of an engineered multi-copper oxidase reporter of protein–protein interactions” (The Journal of Biological Chemistry, 2019).

T1: CueO-12.1 (E. coli, UniProt P36649 29-516, M358I | 12.1 peptide replaced residues 384–394 (translated from primers 9 and …))
T1 construct: signal peptide in the construct; source: E. coli BL21(DE3), purified (HisTrap)
T1 sequence (looked up): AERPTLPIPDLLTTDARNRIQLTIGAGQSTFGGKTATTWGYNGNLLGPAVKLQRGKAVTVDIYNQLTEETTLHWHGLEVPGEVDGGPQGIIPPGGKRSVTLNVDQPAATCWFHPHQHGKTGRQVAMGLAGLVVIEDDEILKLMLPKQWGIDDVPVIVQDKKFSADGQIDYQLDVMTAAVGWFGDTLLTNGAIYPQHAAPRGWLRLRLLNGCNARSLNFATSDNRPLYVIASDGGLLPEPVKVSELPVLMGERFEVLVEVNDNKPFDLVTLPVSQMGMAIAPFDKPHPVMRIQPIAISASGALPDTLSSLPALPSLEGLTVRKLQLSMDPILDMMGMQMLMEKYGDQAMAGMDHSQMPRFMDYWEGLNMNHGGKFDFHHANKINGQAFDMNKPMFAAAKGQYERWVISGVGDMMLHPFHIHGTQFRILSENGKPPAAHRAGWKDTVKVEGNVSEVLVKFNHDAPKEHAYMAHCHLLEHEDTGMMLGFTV

T2: CueO (M358I) (E. coli, UniProt P36649 29-516, M358I)
T2 construct: signal peptide in the construct (primer 1 begins at the precursor's ATG); E. coli multi-copper oxidase CueO, gene amplified from JM109 genomic DNA with primers 1 and 2; The M358I mutation arose during cloning and is present in all variants; The signal peptide may be cut in E. coli (surmise; the solved variants are modelled from residue 29 or 30); source: E. coli BL21(DE3), purified (HisTrap)
T2 sequence (looked up): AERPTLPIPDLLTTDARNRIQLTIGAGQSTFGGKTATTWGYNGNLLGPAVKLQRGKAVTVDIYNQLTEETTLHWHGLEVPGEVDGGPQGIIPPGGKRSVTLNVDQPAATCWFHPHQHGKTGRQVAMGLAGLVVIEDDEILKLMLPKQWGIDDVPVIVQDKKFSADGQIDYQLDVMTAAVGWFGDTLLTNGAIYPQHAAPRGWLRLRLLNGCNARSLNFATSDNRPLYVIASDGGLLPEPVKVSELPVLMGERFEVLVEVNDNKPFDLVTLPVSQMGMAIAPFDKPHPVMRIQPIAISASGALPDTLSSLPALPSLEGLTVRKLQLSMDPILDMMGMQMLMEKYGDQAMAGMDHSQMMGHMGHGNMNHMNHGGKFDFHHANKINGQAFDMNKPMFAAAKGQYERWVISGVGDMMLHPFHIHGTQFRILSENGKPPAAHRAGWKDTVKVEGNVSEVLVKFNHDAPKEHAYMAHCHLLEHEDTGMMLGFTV

T3: CueO-PMI (E. coli, UniProt P36649 29-516, M358I | PMI peptide insert (translated from primers 13 and 14, Table 3: 385-395 …))
T3 construct: signal peptide in the construct; source: E. coli BL21(DE3), purified (HisTrap)
T3 sequence (looked up): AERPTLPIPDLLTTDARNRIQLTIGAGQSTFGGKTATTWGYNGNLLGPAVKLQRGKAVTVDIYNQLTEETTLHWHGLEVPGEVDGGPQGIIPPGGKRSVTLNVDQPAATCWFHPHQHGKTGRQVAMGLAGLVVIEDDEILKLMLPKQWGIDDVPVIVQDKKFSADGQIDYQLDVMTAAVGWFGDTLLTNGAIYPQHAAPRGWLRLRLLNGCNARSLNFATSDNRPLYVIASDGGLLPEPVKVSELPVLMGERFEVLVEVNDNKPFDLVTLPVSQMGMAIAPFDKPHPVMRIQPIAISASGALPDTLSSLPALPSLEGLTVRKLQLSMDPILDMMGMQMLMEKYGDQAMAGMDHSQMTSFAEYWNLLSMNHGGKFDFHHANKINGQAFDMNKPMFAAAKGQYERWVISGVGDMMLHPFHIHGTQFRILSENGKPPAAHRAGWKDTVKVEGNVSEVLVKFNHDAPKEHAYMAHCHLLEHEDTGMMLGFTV

B1: CueO-PM2 (designed binder)
chain: AERPTLPIPDLLTTDARNRIQLTIGAGQSTFGGKTATTWGYNGNLLGPAVKLQRGKAVTVDIYNQLTEETTLHWHGLEVPGEVDGGPQGIIPPGGKRSVTLNVDQPAATCWFHPHQHGKTGRQVAMGLAGLVVIEDDEILKLMLPKQWGIDDVPVIVQDKKFSADGQIDYQLDVMTAAVGWFGDTLLTNGAIYPQHAAPRGWLRLRLLNGCNARSLNFATSDNRPLYVIASDGGLLPEPVKVSELPVLMGERFEVLVEVNDNKPFDLVTLPVSQMGMAIAPFDKPHPVMRIQPIAISASGALPDTLSSLPALPSLEGLTVRKLQLSMDPILDMMGMQMLMEKYGDQAMAGMDHSQMTSFAEYWALLSMNHGGKFDFHHANKINGQAFDMNKPMFAAAKGQYERWVISGVGDMMLHPFHIHGTQFRILSENGKPPAAHRAGWKDTVKVEGNVSEVLVKFNHDAPKEHAYMAHCHLLEHEDTGMMLGFTV
B2: MDM2(6–125) (domain or fragment, UniProt Q00987 6-125, looked up)
chain: MSVPTDGAVTTSQIPASEQETLVRPKPLLLKLLKSVGAQKDTYTMKEVLFYLGQYIMTKRLYDEKQQHIVYCSNDLLGDLFGVPSFSVKEHRKIYTMIYRNLVVVNQQESSDSGTSVSEN

Columns and labels:
[1] = biological target: B2; assay: cell-based or functional assay
[2] = biological target: T1, CueO-12.1; assay: fluorescence polarisation; competitive fluorescence anisotropy; CueO proteins titrated against 150 nM MDM2(6–125) and 50 nM FITC-labeled 12.1 peptide; PBS, 3% DMSO, 0.1% Tween 20; apparent Kd; details: both partners purified
[3] = biological target: T2, CueO (M358I); assay: as above; details: both partners purified
[4] = biological target: B1; assay: as above; details: both partners purified
[5] = biological target: T3, CueO-PMI; assay: as above; details: both partners purified

Binder | kcat of syringaldazine oxidation by CueO-PM2 preincubated with 10 μM MDM2, against CueO-PM2 alone [1] | Kd [2] | Kd [3] | Kd [4] | Kd [5]
B1 | ~1.6 fold |  |  |  | 
B2 |  | 722 nM | 44300 nM | 25 nM | 28 nM
